Source: the nanobody polyreactivity screen of Harvey et al. (2022)

Assay: yeast display, Sf9 membrane polyspecificity reagent, FACS + sequencing; frameworks hold sequencing errors
In short: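 Synthetic nanobody libraries on Saccharomyces cerevisiae BJ5465 were galactose-induced for 36–48 hours, stained 1 hour at 4 °C with 10% biotinylated, detergent-solubilized Sf9 membrane reagent and enriched on streptavidin microbeads. FACS then separated cells into low and high (top ~1%) gates by anti-HA (expression) and streptavidin (reagent binding) fluorescence. Genes were colony-PCR amplified, MiSeq 2 × 250 sequenced and CDR-length filtered. A clone's polyreactivity label is that of its gate of origin.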

| Sequence | polyreactivity (PSR sort gate) |
| --- | --- |
| QVQLVDSGGGLVQAGGSLRLSCAASGIIYRFYAMGWYRQAPAQEREMVAAISSGGSTYYADSVKGRCTISRDTAKNTVYLQINRLKPEDTAVYYCNARVRYKRTGRYGYWGQGTQVTVSS | high polyreactivity |
| QVQLVDSGGGLVQAGGSLRLSCAASGINFASYAMGWYRQAPGKEMEIVAAISRSGSSTYYADSVKGRFTISRDNAKYTVYLQMNSLKPEDTAVYYCARARSGGSHREYYWGQGTQVTVSS | high polyreactivity |
| QVQLVDSGGGLVQAGGSLRLSCAASGITFGRNTMGGYRQAPGKERELVAAIDSGGNTYADSVKGRFTISRDNAKNSVYLQMNSLKPEDTAVYYCAVDGGEFSSYGYWGQGTQVTVSW | low polyreactivity |
| QVQLVDSGGGLVQAGGSLRLSCAASGITFRRYAMGWYRQAPGKERELVASITRNGGITYYADSVKGRFTISRDNAKNTVYLQMNSLKPEDTAVYYCNAVFYYPYPADRRDYWGQGTQVTVSS | high polyreactivity |
| QVQLVDSGGGLVQAGGSLRLSCAASGITFWSYAMGWYRPAPGKERELVAGISRRGGSTYYADSVKGRFTISRDNAKNTVYLQMNSLKPEDTAVYYCAARAYPTPVRSFLYTDIVYYWGQGTQVTVSS | high polyreactivity |
| QVQLVDSGGGLVQAGGSLRLSCAASGITFYFNAMGWYRQAPGKERELVAAITRGGRTNYADSVKGRFTISRDNAKNTVYLQMNSLKPEDTAFYYCAAYIYRGRETNGPDYYYWGQGTQVTVSS | low polyreactivity |
| QVQLVDSGGGLVQAGGSLRLSCAASGLIFDSYDMGWYRQEPGKERELVSPIRRNGGSTYYADSVKGRFTISRDNAMYTVYLQMNSLKPEDTAVYYCAVDNSGYCGVYWVKMDYWGQGSQVTVSS | low polyreactivity |
| QVQLVDSGGGLVQAGGSLRLSCAASGLTFQWYTMGWYRPAPGKERELVAAISSRGGSTYYADSVKGRFTISRDNAKNTVYLQMNSLKPEDTAVYYCAAVSGWEHRYDYWGQGTLVTVSS | high polyreactivity |
| QVQLVDSGGGLVQAGGSLRLSCAASGLTFQYKAMGRYRHAPGKERELVATISQSGGSTYYADSVKGRFTISRDNAKNTVYLQMNSLKPEDTAVYYCAADGAWGTASYSVAFDYWGQGTQVTVSS | low polyreactivity |
| QVQLVDSGGGLVQAGGSLRLSCAASGLTFYYYAMGWYRQAPGKESELVSAISATGGRTYYSDSVKGRFTISRDNAKNTVYLQMNSLKPEDTAVYYCAADTPYLRRRLGMDYWGQGTQVTVSS | high polyreactivity |
| QVQLVDSGGGLVQAGGSLRLSCAASGLTIYAYAMGWYRQAPGKERELVAAISSGGSTSYADSVKGRFTISRDNAKNTVYLQMNSLKPEDTAVYYCAARPKSSRFFGWGYNYWGQGTQVTVSS | high polyreactivity |
| QVQLVDSGGGLVQAGGSLRLSCAASGNIICGYARGRNIQAPGKEREMVASISQRGGITYYADSVKGRFTISRDKAKNTVYLEMNSLKAEDTEVYYCAKRGTYGWYGAYDYWGEGTQVTVSS | low polyreactivity |
| QVQLVDSGGGLVQAGGSLRLSCAASGNTFIYYAMGWYRQAPGKERELVAAITWSGGSTYYADSVKGRFTISRDNAKNTVYLQMNSLKPEDTAVYYCAKFTHNYYYWGQGTQVTVSS | high polyreactivity |
| QVQLVDSGGGLVQAGGSLRLSCAASGPIFKRYAMGWYRQAPGKERELVASITTSGDSTYYADSVKGRFTISRDNAKNTVYLQMNSLKPEDTAVYYCAGRSYSGRRYDYWGQGTQVTVSS | high polyreactivity |
| QVQLVDSGGGLVQAGGSLRLSCAASGRIFDYNAMGWYRQAPGKERELVAVITGTGGTTYYADSVKGRFTISRDNAKNTVYLQMNSVKPEDTAVYYCNADDYRLTSLYIPERYDYWGQGTQLTVSS | low polyreactivity |
| QVQLVDSGGGLVQAGGSLRLSCAASGRIFHGYAMGWYRLAPGKERELVAAISWRGDSTYYADSVKGRFTISRDNAKNTVYLQMNSLKPEDTAVYYCAAASRSWRDDYWGQGTQVTVSS | low polyreactivity |
| QVQLVDSGGGLVQAGGSLRLSCAASGRIFLVNALGGSRQAPGKERELVAAISYRSGRTYSADSVKGRFTISRDTAKNTVYLQMNSLIPEDTAVYYCAAYTNVADMDYWGQGTQVTVSS | high polyreactivity |
| QVQLVDSGGGLVQAGGSLRLSCAASGRIFYVYAMGWYRQATGKERQLVASIRYSGATTYYADSVKGRFTISLDNAKNTVYLQMNSLKPEDTAVYYCAADTLGTPAYRYEYWGQGTQVTVSS | low polyreactivity |
| QVQLVDSGGGLVQAGGSLRLSCAASGRTFDGYAMGWYRQAPGKERELVAAISRTGGSTYYADSVKGRFTISRENAKNTVYLLMTSLKPEDTAVYYCNAVTLSSTYGGHDYWGQGTQVTVSS | high polyreactivity |
| QVQLVDSGGGLVQAGGSLRLSCAASGRTFGIYAMGWYRQAPGKERELVAAIRWRDGSTYYADSVKGRFTISRDNAKNTVYLQMYSLKPEDNAVYYCAATSLVYVRGSYWKYGYWGQGTQVTVSS | high polyreactivity |
| QVQLVDSGGGLVQAGGSLRLSCAASGRTFLSMGWYRQAPGKERELVAAISRTNYADSVKGRFTISRDNAKNTVYLQMNSLKPEDTAVYYCAAVPKYGRYVRIGYPNDYWGQGTQVTVSS | low polyreactivity |
| QVQLVDSGGGLVQAGGSLRLSCAASGRTFPSYVMGWYRQAPGKERELVAAISWSGGSTSYADSVKGRFTISRDNAKNTVYLQMNSLKPEDTAVYYCNADRRPGGDYWGQGTQVTVSS | low polyreactivity |

| Sequence | polyreactivity (PSR sort gate) |
| --- | --- |
| QVQLVDSGGGLVQAGGSLRLSCAASGRTFWYYDMGWYRQAPGKERELVATINNVGSTHYADSVKGRFTISRDNAKNTVYLQMNSLNPEDTAVYYCARASYGKMDYWGQGTQLTVSS | high polyreactivity |
| QVQLVDSGGGLVQAGGSLRLSCAASGRTFWYYTMGWYRQAPGKEREFVAAIRGSGTSTYYADSVKARFTISRDNEKNTVYLQMNSLKPEDTAVYYCAAESPVYHLVTYDYWGQGTQVTVSS | high polyreactivity |
| QVQLVDSGGGLVQAGGSLRLSCAASGRTFYTYAMGWYRVAPGKEWELVAAITGGGSTTYADSVKGRFTISRDNAKNTVYLQMNSLKPEDTEVYYCAALIYGPERVVDEYDYWGQGTQVTVSS | low polyreactivity |
| QVQLVDSGGGLVQAGGSLRLSCAASGRTVRYYTMGWYRQAPGKERELVAAISNAASTNYADSVKGRFTISRDNAKNTVYLQMNSLKPEDTAVYYCNAYLHYRAGHPRGYHNRYYYWGQGTQVTVSS | high polyreactivity |
| QVQLVDSGGGLVQAGGSLRLSCAASGSIFHANAMGWYRQAPGKERELVAVISQGGGSTYYADSVKGRFTISRDNAKNTVYLQMNSLKPEDTAVYYCAAYYYYSAYGDDYWGQGTQVTVSS | high polyreactivity |
| QVQLVDSGGGLVQAGGSLRLSCAASGSIFHVYAMGWYRQAPGKERELFAAIDRSGGSTYYADSVKGRFTISRDNAKNTVYLQMNSLKPEDTAVFYCAKDVLGGLITDGVGNDYWGQGTQLTVSS | low polyreactivity |
| QVQLVDSGGGLVQAGGSLRLSCAASGSIFPKNAMGWYRPAPGKERELVAAISSGGGGTYYADSVKGRFTISRDNAKNTVYLQMNSLKPEDTAVFYCNKRDGNGGNTKYDYWGQGTQVTVSS | low polyreactivity |
| QVQLVDSGGGLVQAGGSLRLSCAASGSIFRRNAMGWYRQAPGKERELVAAITRSGSGTSYADSVKGRFTISLDNAKNTVYLQMNSLKPEDTAVYYCNAAYVYGDQARGGYWGQGTQVTVSS | high polyreactivity |
| QVQLVDSGGGLVQAGGSLRLSCAASGSIFTDNAMGWYIQAPGKERDLVAAITGRGGNTYYADSLKGRFPISRDNAKNTVYLQMNSLKPEDTAVYYCAARIFRTRKPLGYWGQGTQVTVSS | high polyreactivity |
| QVQLVDSGGGLVQAGGSLRLSCAASGSIFVKYAMGWYRQAPGKERELVAAISWRGGSTYYADSVKGRFTISRDNAKNTVYLQMNSLKPEDTAVYYCAKYPGISGYNYWGQGTQVTVSS | high polyreactivity |
| QVQLVDSGGGLVQAGGSLRLSCAASGSIFWIYSMGWYRQAPGKERELVATISRGGSTYADSVKGRFTISRDNAKNTVYLQMNSLKPEDTPVYYCAARAFAGNQQAYYYWGQGTQVTVSS | high polyreactivity |
| QVQLVDSGGGLVQAGGSLRLSCAASGSIILVNAMGWYRQAPGKEREFVAAISTSSGSTYYADSVKGRFTISRDNAKNTVYLQMNSLKPEDTAVYYCAADEVYSRGIWPVEDDYWGQGSQVTVSS | low polyreactivity |
| QVQLVDSGGGLVQAGGSLRLSCAASGSILGGNAMGWYRQAPGKERELVAAITFSGGGTYYADSVKGRFTISRDHAKNTVYLQMNSLKPEDTAVYYCAADKDGYTYEFDYWGQGTQVTVSS | low polyreactivity |
| QVQLVDSGGGLVQAGGSLRLSCAASGSILNNYAMGWYRQARGKERELVAAISSSGGTNYADSVKGRFTISRDNAKNTVYLQMNSLKPEDTAVYYCYADVLDGGYDYWGQGTQVTESS | low polyreactivity |
| QVQLVDSGGGLVQAGGSLRLSCAASGSIYSSYAMGWYRQAPGKERELVASISSGGSKNYADSVKGRFTISRVNAKNTVYLQMNSLKPEDTAFYYCNVDLYNWRGDYTGYDYWGQGTQVTVSS | low polyreactivity |
| QVQLVDSGGGLVQAGGSLRLSCAASGSPFTTYAMGWYRQAPGTERELVAAISTNGGRTFYSDSVKGRFTISRDNAKNSVYLQMNSLKPEDTALYYCAAEYDLYAPGYYYWGEGTQVTVSS | low polyreactivity |
| QVQLVDSGGGLVQAGGSLRLSCAASGSTCYYYNMGWYRQSPWKERELVAAISFIGGSTYYADSVKGRFTISRDNAKYTVYLQMNSLTPEDTAVFYCAAEFYRWGSLSFSNDYWGQGTQVTVSS | low polyreactivity |
| QVQLVDSGGGLVQAGGSLRLSCAASGSTFLYHAMGWYRQAPGKERELLAAINSGTSTTYADSVKGRFTISRDNAKNRVYLQMNSLNPEDTAVYYCAADYYYVNYYGYYTLFDFDYWGQGTQVTVSS | low polyreactivity |
| QVQLVDSGGGLVQAGGSLRLSCAASGSTFLYYSMGWYTQAPGKERELVAVISWSGVSTYYADSVKGRFTISRDNAKNSVYLQMNSLKPEDTAVYYCNTGNHYIRTYGYWGQGTQVTVSW | low polyreactivity |
| QVQLVDSGGGLVQAGGSLRLSCAASGSTFQPYAMGWYRQAPGKERELVAAIRYSGGITYYADSVKGRFTISRDNAKNTVYLQMNSLKPEDTAVYYCAAYGFYGGDYWGQGTQVTVSS | high polyreactivity |
| QVQLVDSGGGLVQAGGSLRLSCAASGSTFRGYDMGWYRQAPGKESELVAAITGSGTSTYYADSVKVRFTISRDNAKNTVYLQMNSLKPEDTAVYYCAARSRRPAERMYYWGQGTQVTVSS | high polyreactivity |
